Patent publication US20160222130A1 (Astellas, published 2016)

Tests used:
Human Tie2 (1-452)A3-Fc [1] = molecular target: T1, Human Tie2 (1-452)A3-Fc (human, UniProt Q02763 23-452); experiment: ELISA; Tie2-Fc coated at 1 ug/mL; signal at 100 ng/mL antibody vs convergence value on the parent
T1 construct: range 1-452
Method: (§1) The next day, the immobilized solution was removed, and the plate was washed with a TBS-T solution, and incubated for 60 minutes by the addition of 50 μL of a Blocker™ Casein in TBS (Thermo Fisher Scientific Inc., 37532) to perform blocking. The resultant was washed with a TBS-T solution, and TIE-1-Igγ1-LALA, diluted with 0.05% Tween 20 (Nacalai Tesque Inc., 28353-85)—containing Blocker™ Casein in TBS from 0.03 ng/mL to 100 ng/mL through eight steps, was added thereto in the amount of 20 μL per well. The resultant was incubated at room temperature for 90 minutes and then washed with a TBS-T solution three times, and 20 μL of a biotin-labeled anti-human kappa light chain antibody, which had been diluted to 0.1 μg/mL with 0.05% Tween 20-containing Blocker™ Casein in TBS, was added thereto. The resultant was incubated at room temperature for 60 minutes and then washed with a TBS-T solution three times, and 20 μL of alkaline phosphatase-labeled streptavidin, which had been diluted to 0.1 μg/mL with 0.05% Tween 20-containing Blocker™ Casein in TBS, was added thereto. The resultant was incubated at room temperature for 60 minutes and then washed with a TBS-T solution three times, and 50 μL of Chemiluminescent Ultra Sensitive AP Microwell and/or Membrane Substrate (450 nm), which had been 5-fold diluted with 1 mM MgCl₂-containing 20 mM TBS (pH 9.8) as a substrate, was added thereto. The resultant was incubated at room temperature under light-shielding for 40 minutes, and then luminescent intensity thereof was measured with an EnVision™ multi-label counter. The EC₅₀ value of TIE-1-Igγ1-LALA with respect to the human Tie2 (1-452)-Fc chimeric protein and 23 mutant proteins thereof were calculated. The relative value of luminescent intensity of 100 ng/mL TIE-1-Igγ1-LALA as maximum concentration point with respect to human Tie2 (1-452)-Fc chimeric protein and 23 mutant proteins thereof when the convergence value of the sigmoid curve of TIE-1-Igγ1-LALA binding to the human Tie2 (1-452)-Fc chimeric protein which was taken as 100% was calculated (Table 8 and Table 9). Further, the EC₅₀ value and the convergence value were calculated by Sigmoid-Emax model non-linear regression analysis.

Human Tie2 (1-452)A5-Fc [2] = molecular target: T2, Human Tie2 (1-452)A5-Fc (human, UniProt Q02763 23-452); experiment: as above
T2 construct: range 1-452
Method: as §1

Human Tie2 (1-452)A6-Fc [3] = molecular target: T3, Human Tie2 (1-452)A6-Fc (human, UniProt Q02763 23-452); experiment: as above
T3 construct: range 1-452
Method: as §1

Human Tie2 (1-452)A1-Fc [4] = molecular target: T4, Human Tie2 (1-452)A1-Fc (human, UniProt Q02763 23-452); experiment: as above
T4 construct: range 1-452
Method: as §1

[5] = molecular target: T5, human Tie2 (1-452)-Fc chimeric protein (human, UniProt Q02763 23-452); experiment: as above
T5 construct: range 1-452; The stated range 1-452 begins at residue 1 of the precursor
Method: as §1

Human Tie2 (1-452)A4-Fc [6] = molecular target: T6, Human Tie2 (1-452)A4-Fc (human, UniProt Q02763 23-452); experiment: as above
T6 construct: range 1-452
Method: as §1

Human Tie2 (1-452)A2-Fc [7] = molecular target: T7, Human Tie2 (1-452)A2-Fc (human, UniProt Q02763 23-452); experiment: as above
T7 construct: range 1-452
Method: as §1

[8] = molecular target: human Tie2 (on human Tie2-expressing cells) (human, UniProt Q02763 23-1124); experiment: cell-based or functional assay
Human Tie2 (1-452)A3-Fc [9] = molecular target: T1, Human Tie2 (1-452)A3-Fc; experiment: ELISA; Tie2-Fc coated at 1 ug/mL, chemiluminescence
Method: as §1

Human Tie2 (1-452)A5-Fc [10] = molecular target: T2, Human Tie2 (1-452)A5-Fc; experiment: as above
Method: as §1

Human Tie2 (1-452)A6-Fc [11] = molecular target: T3, Human Tie2 (1-452)A6-Fc; experiment: as above
Method: as §1

Human Tie2 (1-452)A1-Fc [12] = molecular target: T4, Human Tie2 (1-452)A1-Fc; experiment: as above
Method: as §1

[13] = molecular target: T5, human Tie2 (1-452)-Fc chimeric protein; experiment: as above
Method: as §1

Human Tie2 (1-452)A4-Fc [14] = molecular target: T6, Human Tie2 (1-452)A4-Fc; experiment: as above
Method: as §1

Human Tie2 (1-452)A2-Fc [15] = molecular target: T7, Human Tie2 (1-452)A2-Fc; experiment: as above
Method: as §1

Human Tie2 (1-452)r2-Fc = molecular target: T8, Human Tie2 (1-452)r2-Fc (human, UniProt Q02763 23-452); experiment: ELISA; Tie2-Fc coated at 1 ug/mL; signal at 100 ng/mL antibody vs convergence value on the parent
T8 construct: range 1-452
Method: as §1

Human Tie2 (1-452)r4-Fc = molecular target: T9, Human Tie2 (1-452)r4-Fc (human, UniProt Q02763 23-452); experiment: as above
T9 construct: range 1-452
Method: as §1

Human Tie2 (1-452)r5-Fc = molecular target: T10, Human Tie2 (1-452)r5-Fc (human, UniProt Q02763 23-452); experiment: as above
T10 construct: range 1-452
Method: as §1

T1 sequence (Q02763 other isoform, or with tags, fused parts or gaps limits assumed, form in doubt): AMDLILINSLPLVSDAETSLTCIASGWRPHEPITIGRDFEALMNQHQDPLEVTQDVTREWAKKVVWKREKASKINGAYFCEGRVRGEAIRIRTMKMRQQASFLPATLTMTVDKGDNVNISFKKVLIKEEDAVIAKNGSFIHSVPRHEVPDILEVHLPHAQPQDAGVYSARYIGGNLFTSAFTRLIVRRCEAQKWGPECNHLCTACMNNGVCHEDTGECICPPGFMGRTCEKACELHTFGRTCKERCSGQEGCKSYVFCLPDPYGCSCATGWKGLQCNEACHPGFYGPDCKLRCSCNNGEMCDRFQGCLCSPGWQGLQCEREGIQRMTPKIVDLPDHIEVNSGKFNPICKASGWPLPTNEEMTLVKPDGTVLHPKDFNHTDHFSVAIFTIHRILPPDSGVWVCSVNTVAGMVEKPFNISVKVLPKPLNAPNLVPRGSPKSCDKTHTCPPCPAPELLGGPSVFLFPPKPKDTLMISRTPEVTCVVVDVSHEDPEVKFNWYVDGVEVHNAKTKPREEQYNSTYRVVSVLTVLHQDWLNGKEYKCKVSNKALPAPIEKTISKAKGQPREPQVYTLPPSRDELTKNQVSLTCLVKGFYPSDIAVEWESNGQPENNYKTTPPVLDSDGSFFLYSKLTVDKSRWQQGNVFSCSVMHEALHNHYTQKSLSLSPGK
T2 sequence (Q02763 other isoform, or with tags, fused parts or gaps limits assumed, form in doubt): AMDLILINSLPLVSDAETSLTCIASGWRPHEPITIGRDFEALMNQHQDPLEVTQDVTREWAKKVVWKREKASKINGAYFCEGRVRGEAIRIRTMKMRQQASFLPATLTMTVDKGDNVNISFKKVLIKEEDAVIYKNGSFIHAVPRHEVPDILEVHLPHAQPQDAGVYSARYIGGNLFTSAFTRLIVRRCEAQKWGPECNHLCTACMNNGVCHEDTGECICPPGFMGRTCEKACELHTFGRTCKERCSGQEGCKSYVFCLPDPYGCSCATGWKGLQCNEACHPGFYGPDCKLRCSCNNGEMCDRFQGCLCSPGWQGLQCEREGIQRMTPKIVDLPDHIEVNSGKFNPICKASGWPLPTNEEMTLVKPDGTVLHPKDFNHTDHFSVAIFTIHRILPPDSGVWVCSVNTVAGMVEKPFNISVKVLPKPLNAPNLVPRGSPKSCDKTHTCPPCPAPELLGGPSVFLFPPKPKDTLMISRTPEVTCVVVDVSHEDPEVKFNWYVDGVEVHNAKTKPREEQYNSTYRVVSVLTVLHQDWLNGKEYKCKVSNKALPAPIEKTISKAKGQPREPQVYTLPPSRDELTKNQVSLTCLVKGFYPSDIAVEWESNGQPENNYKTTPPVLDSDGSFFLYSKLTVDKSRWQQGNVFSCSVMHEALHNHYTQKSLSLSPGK
T4 sequence (Q02763 other isoform, or with tags, fused parts or gaps limits assumed, form in doubt): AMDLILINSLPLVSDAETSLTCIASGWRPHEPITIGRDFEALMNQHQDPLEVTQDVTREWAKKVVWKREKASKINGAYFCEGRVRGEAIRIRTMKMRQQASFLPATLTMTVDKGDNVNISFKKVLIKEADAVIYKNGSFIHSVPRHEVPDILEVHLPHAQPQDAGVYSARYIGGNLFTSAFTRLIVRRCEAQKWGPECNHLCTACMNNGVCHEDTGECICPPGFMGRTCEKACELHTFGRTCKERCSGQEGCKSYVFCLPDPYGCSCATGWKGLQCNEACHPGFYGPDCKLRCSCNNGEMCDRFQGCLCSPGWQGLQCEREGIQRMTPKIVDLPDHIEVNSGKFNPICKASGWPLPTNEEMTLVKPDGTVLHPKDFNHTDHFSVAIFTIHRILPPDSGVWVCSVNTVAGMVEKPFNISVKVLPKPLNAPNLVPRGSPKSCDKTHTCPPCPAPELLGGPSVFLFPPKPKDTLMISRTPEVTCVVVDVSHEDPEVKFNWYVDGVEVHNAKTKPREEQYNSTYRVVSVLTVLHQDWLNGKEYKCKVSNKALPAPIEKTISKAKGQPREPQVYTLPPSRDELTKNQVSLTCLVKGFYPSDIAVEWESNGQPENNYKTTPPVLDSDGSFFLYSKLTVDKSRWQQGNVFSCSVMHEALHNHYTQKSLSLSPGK
T3 sequence (Q02763 other isoform, or with tags, fused parts or gaps limits assumed, form in doubt): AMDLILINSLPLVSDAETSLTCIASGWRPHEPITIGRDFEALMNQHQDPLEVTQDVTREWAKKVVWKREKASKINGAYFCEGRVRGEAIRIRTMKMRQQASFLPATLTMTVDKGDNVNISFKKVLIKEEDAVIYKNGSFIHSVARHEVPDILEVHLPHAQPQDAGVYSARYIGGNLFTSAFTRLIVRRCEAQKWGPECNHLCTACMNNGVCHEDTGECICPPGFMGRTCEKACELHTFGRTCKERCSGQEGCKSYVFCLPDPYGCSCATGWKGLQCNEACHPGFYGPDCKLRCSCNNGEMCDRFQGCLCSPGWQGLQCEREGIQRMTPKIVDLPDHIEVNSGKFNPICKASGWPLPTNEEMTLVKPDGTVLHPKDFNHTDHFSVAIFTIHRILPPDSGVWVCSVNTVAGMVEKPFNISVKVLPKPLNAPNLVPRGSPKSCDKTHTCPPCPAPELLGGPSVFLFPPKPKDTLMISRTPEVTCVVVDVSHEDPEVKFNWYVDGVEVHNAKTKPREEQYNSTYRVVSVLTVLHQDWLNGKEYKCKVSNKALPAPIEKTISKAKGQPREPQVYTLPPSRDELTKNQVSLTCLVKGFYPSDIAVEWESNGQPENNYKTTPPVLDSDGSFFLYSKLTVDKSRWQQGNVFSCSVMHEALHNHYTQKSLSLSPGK
T6 sequence (Q02763 other isoform, or with tags, fused parts or gaps limits assumed, form in doubt): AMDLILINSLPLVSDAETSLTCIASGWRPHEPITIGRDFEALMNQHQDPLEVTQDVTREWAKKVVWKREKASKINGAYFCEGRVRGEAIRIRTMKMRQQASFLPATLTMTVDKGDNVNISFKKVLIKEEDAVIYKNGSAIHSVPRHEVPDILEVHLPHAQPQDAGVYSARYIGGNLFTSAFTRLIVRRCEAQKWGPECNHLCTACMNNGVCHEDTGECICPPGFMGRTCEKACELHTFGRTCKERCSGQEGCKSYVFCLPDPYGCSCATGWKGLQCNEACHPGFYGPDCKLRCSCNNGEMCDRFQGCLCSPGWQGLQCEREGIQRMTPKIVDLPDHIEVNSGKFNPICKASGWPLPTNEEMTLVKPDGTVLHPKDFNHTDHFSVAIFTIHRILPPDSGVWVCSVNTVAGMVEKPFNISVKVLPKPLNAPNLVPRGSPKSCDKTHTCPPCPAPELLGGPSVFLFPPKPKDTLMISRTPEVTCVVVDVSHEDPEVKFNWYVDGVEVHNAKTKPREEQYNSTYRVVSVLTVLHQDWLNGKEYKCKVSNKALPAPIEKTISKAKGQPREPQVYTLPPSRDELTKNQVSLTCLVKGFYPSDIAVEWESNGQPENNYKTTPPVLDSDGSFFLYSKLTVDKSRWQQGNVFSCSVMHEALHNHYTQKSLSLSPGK
T7 sequence (Q02763 other isoform, or with tags, fused parts or gaps limits assumed, form in doubt): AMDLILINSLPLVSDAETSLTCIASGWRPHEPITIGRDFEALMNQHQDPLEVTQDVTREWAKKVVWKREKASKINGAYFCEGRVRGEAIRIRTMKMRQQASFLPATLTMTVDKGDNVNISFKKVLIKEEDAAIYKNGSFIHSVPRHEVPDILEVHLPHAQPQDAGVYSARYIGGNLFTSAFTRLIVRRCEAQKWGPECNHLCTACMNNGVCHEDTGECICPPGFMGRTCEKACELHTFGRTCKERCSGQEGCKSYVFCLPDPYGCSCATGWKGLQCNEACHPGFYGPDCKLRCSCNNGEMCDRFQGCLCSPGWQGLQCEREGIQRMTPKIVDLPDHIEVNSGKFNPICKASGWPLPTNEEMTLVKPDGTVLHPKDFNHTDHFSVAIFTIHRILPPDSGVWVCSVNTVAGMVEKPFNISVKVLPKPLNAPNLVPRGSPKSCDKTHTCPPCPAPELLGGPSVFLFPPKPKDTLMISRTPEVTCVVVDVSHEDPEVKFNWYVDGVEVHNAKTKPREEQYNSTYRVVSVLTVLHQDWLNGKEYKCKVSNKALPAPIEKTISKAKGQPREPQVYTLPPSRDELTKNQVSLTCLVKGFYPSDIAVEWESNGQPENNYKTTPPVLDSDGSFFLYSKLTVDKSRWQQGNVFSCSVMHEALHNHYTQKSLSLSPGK

Relative value (%) of luminescent intensity (Human Tie2 (1-452)A3-Fc [1]): 98%
Relative value (%) of luminescent intensity (Human Tie2 (1-452)A5-Fc [2]): 98%
Relative value (%) of luminescent intensity (Human Tie2 (1-452)A6-Fc [3]): 99%
Relative value (%) of luminescent intensity (Human Tie2 (1-452)A1-Fc [4]): 90%
Relative value (%) of luminescent intensity [5]: 98%
Relative value (%) of luminescent intensity (Human Tie2 (1-452)A4-Fc [6]): 100%
Relative value (%) of luminescent intensity (Human Tie2 (1-452)A2-Fc [7]): 95%
EC50 value of anti-apoptotic activity, human Tie2-expressing BaF3 cell [8]: 3.65 ng/mL
EC50 (Human Tie2 (1-452)A3-Fc [9]): 1 ng/mL
EC50 (Human Tie2 (1-452)A5-Fc [10]): 0.9 ng/mL
EC50 (Human Tie2 (1-452)A6-Fc [11]): 1.1 ng/mL
EC50 (Human Tie2 (1-452)A1-Fc [12]): 1.3 ng/mL
EC50 [13]: 1 ng/mL
EC50 (Human Tie2 (1-452)A4-Fc [14]): 1 ng/mL
EC50 (Human Tie2 (1-452)A2-Fc [15]): 1.3 ng/mL
Relative value (%) of luminescent intensity (Human Tie2 (1-452)r2-Fc): 96%
Relative value (%) of luminescent intensity (Human Tie2 (1-452)r4-Fc): 101%
Relative value (%) of luminescent intensity (Human Tie2 (1-452)r5-Fc): 102%
B1: TIE-1-Igγ1-LALA (antibody, human IgG1, kappa, L234A L235A)
heavy: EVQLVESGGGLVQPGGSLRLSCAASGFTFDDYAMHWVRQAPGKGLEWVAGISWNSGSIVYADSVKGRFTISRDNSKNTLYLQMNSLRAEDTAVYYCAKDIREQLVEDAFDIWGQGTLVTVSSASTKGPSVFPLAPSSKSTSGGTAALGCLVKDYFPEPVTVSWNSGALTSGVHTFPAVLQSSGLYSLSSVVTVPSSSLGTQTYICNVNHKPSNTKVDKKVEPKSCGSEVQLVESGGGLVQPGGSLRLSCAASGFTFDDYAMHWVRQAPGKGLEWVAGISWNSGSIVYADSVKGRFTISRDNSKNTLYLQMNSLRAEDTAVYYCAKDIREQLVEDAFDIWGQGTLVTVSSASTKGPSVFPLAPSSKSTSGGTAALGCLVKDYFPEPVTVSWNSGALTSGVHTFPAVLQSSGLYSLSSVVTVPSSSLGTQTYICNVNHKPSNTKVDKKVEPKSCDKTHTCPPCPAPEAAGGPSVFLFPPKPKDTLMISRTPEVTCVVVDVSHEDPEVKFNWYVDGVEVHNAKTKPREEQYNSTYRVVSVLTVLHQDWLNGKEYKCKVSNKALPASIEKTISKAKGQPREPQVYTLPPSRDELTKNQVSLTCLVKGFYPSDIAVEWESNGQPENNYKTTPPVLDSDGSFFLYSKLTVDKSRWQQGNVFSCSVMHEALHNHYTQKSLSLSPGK
light: DIQMTQSPSSLSASVGDRVTITCRSSQSLLHSHRYNYLDWYQQKPGKAPKLLIYLGSNRASGVPSRFSGSGSGTDFTLTISSVQPEDFATYYCMQTLQTPLTFGQGTKVEIKRTVAAPSVFIFPPSDEQLKSGTASVVCLLNNFYPREAKVQWKVDNALQSGNSQESVTEQDSKDSTYSLSSTLTLSKADYEKHKVYACEVTHQGLSSPVTKSFNRGEC
notes: Tandem tetravalent format: two heavy chains (VH-CH1-linker-VH-CH1-CH2-CH3) and four light chains; also called tetravalent anti-human Tie2 antibody with L234A, L235A and P331S
